From publication PMC9169858 (2022)
Several values for one entry are separate records, joined by “and”; a condition that tells them apart may be missing. Identical values can stand only once.

Biological target: SARS-CoV-2 main protease (M^pro), pGEX4T-1 construct, GST removed by thrombin (SARS-CoV-2, UniProt P0DTD1)
Test: BLI

Binder | Kd
NB1D10 (VHH) VHH: QVQLQESGGGSVQAGGSLRLSCAVSGYSYCNYDLGWFRQAPGKEREGIATIDSDGNTYYVDSVKGRFTISQDNAKNTVALQMNSLKPEDTAMYYCKVGSIASSVPEVSCPPSAPFGYWGQGTQVTVSS | 0.43 nM and 0.431 nM
NB2E3 (VHH) VHH: QVQLQESGGGSVQAGGSLRLSCAVSGFIATSCALGWFRQAPGKEREGIATITTDGTTYYVDSVKGRFTISQDNAKNTVALQMNSLKPEDTAMYYCKLCCSGQYCAWGQGTQVTVSS | 2.7 nM
